First the molecules themselves.
B1: NTD (30-kDa N-terminal proteolytic fragment of fibronectin) (domain or fragment)
chain: not shown
modifications: Limits not printed: conventional N-terminal 29-30 kDa fragment, mature residues 1-259 (1-5F1). N-terminal pyroglutamate, intradomain disulfides
B2: FgγC (synthetic peptide, 17 C-terminal residues of the Fg γA chain) (peptide)
peptide: Ac-GEGQQHHLGGAKQAGDV-NH2
notes: Fibrinogen γA chain, human, the 17 C-terminal residues; also called Fg peptide; source: synthetic peptide (Severn Biotech Ltd.)
B3: FgD (monomeric ~85-kDa proteolytic fragment of Fg) (domain or fragment)
chain 1: DNTYNRVSEDLRSRIEVLKRKVIEKVQHIQLLQKNVRAQLVDMKRLEVDIDIKIRSCRGSCSRALAREVDLKDYEDQQKQLEQVIAKDLLPSR
chain 2: DNENVVNEYSSELEKHQLYIDETVNSNIPTNLRVLRSILENLRSKIQKLESDVSAQMEYCRTPCTVSCNIPVVSGKECEEIIRKGGETSEMYLIQPDSSVKPYRVYCDMNTENGGWTVIQNRQDGSVDFGRKWDPYKQGFGNVATNTDGKNYCGLPGEYWLGNDKISQLTRMGPTELLIEMEDWKGDKVKAHYGGFTVQNEANKYQISVNKYRGTAGNALMDGASQLMGENRTMTIHNGMFFSTYDRDNDGWLTSDPRKQCSKEDGGGWWYNRCHAANPNGRYYWGGQYTWDMAKHGTDDGVVWMNWKGSWYSMRKMSMKIRPFFPQQ
chain 3: AIQLTYNPDESSKPNMIDAATLKSRKMLEEIMKYEASILTHDSSIRYLQEIYNSNNQKIVNLKEKVAQLEAQCQEPCKDTVQIHDITGKDCQDIANKGAKQSGLYFIKPLKANQQFLVYCEIDGSGNGWTVFQKRLDGSVDFKKNWIQYKEGFGHLSPTGTTEFWLGNEKIHLISTQSAIPYALRVELEDWNGRTSTADYAMFKVGPEADKYRLTYAYFAGGDAGDAFDGFDFGDDPSDKFFTSHNGMQFSTWDNDNDKFEGNCAEQDGSGWWMNKCHAGHLNGVYYQGGTYSKASTPNGYDNGIIWATWKTRWYSMKKTTMKIIPFNRLTIGEGQQHHLGGAKQAGDV
modifications: Limits not printed: conventional plasmin fragment D1 (mature Aalpha 105-197, Bbeta 134-461, gamma 63-411), ends may be ragged; gammaA C-terminus (AGDV) used because the UniProt canonical entry is …
B4: AF1 (rFnBPA(189–550)) (domain or fragment)
chain: AKVETGTDVTSKVTVEIGSIEGHNNTNKVEPHAGQRAVLKYKLKFENGLHQGDYFDFTLSNNVNTHGVSTARKVPEIKNGSVVMATGEVLEGGKIRYTFTNDIEDKVDVTAELEINLFIDPKTVQTNGNQTITSTLNEEQTSKELDVKYKDGIGNYYANLNGSIETFNKANNRFSHVAFIKPNNGKTTSVTVTGTLMKGSNQNGNQPKVRIFEYLGNNEDIAKSVYANTTDTSKFKEVTSNMSGNLNLQNNGSYSLNIENLDKTYVVHYDGEYLNGTDEVDFRTQMVGHPEQLYKYYYDRGYTLTWDNGLVLYSNKANGNEKNGPIIQNNKFEYKEDTIKETLTGQYDKNLVTTVEEEYDSS
notes: Cloned in pET-YSBLIC-3C; not shown: His6, N-terminal, cleaved

Details in all cases: both partners purified
Test [1] addresses B4. Description: ITC; MicroCal VP-ITC, PBS pH 7.4, 25 °C, single-site binding model; AF1 injected into NTD; AF1 with Fg. (ITC needs no label: the signal is the heat of the interaction.)
Test [2] concerns the target B4. Description: SPR; AF1 immobilised by amine coupling, Fn (5.2–0.01 nM) or NTD as analyte; kinetic analysis, Langmuir 1:1 fit; 25 °C, HBS-P+.
In test [3] the target is T1, rFnBPA(189–505) (S. aureus 8325-4, UniProt P14738 189-505).
T1 construct: Cloned in pET-YSBLIC-3C; also called N2N3 (without latch); not shown: His6, N-terminal, cleaved
T1 sequence: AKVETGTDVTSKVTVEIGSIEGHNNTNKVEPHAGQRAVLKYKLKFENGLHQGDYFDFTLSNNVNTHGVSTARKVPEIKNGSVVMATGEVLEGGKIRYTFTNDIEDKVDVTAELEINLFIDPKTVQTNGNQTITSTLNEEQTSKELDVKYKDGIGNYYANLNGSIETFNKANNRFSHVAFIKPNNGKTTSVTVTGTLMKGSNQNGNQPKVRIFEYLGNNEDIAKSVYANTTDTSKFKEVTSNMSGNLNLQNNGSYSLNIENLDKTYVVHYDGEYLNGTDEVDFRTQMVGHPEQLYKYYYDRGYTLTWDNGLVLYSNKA
Description: crystal structure; rFnBPA(189–505) 25 mg/ml with a 20-fold molar excess of FgγC; 1.83 Å.

Test [4] addresses B4. Description: SPR; NTD immobilised on a C1 chip; 0.5 μM AF1 + 0.5 μM Fg injected together, without or with 50 μM FgγC; 25 °C, HBS-P+. For orientation: Surface plasmon resonance follows binding to a sensor surface in real time, without labels.
The target in test [5] is T1, rFnBPA(189–505). Description: SPR; FgD immobilised by amine coupling, rFnBPA constructs as analytes in 2-fold dilutions; equilibrium (steady-state) analysis; 25 °C, HBS-P+ (10 mM HEPES pH 7.4, 150 mM NaCl, 0.05% polysorbate 20).
The target of the next test is T2, rFnBPA(189–511) (S. aureus 8325-4, UniProt P14738 189-511).
T2 construct: Cloned in pET-YSBLIC-3C; also called N2N3 domains including the latch strand; not shown: His6, N-terminal, cleaved
T2 sequence: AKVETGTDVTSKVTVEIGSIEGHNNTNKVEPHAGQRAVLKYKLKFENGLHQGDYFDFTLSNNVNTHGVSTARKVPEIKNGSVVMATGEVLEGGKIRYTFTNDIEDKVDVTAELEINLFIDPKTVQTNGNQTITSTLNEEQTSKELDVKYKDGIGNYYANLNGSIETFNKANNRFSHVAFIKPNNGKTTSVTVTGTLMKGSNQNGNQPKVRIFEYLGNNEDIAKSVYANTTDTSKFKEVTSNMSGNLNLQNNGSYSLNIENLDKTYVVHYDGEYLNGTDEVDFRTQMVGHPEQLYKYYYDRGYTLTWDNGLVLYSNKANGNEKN
The test is described as above.

Test [6] addresses B4. The description is as above.
Test [7] concerns the target B1. Description: ITC; MicroCal VP-ITC, PBS pH 7.4, 25 °C, single-site binding model; AF1 injected into NTD; AF1 with Fg.
The target of test [8] is T3, Intact human plasma fibrinogen (Fg) (human, UniProt P02671-2 20-644; P02675 31-491; P02679-2 27-437).
T3 construct: Fibrinogen Aα chain, human, from plasma; Fibrinogen Bβ chain, human, from plasma; Fibrinogen γ chain, human, from plasma; 341 kDa dimer of heterotrimers Aα, Bβ, γ; source: bought: Calbiochem-Merck-Millipore (human plasma, product no. 341576); in human plasma for the pulldown; copies: 2 + 2 + 2
T3 sequence (looked up) 1: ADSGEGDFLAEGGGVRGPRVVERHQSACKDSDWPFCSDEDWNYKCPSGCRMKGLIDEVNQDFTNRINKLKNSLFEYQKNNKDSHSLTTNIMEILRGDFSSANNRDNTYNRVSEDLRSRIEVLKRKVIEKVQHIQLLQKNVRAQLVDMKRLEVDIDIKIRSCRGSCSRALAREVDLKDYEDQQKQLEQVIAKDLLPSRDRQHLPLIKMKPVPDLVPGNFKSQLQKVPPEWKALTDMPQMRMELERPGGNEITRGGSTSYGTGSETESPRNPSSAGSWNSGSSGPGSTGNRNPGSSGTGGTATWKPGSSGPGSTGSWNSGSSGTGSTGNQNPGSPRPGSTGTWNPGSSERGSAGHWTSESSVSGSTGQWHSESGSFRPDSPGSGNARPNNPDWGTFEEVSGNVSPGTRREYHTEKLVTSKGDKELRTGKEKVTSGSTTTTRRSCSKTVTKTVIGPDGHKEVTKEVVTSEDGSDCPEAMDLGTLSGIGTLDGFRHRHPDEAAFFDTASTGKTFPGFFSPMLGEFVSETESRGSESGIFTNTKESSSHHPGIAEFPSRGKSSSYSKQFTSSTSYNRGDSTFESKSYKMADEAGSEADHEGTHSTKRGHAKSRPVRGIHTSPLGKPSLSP
T3 sequence (looked up) 2: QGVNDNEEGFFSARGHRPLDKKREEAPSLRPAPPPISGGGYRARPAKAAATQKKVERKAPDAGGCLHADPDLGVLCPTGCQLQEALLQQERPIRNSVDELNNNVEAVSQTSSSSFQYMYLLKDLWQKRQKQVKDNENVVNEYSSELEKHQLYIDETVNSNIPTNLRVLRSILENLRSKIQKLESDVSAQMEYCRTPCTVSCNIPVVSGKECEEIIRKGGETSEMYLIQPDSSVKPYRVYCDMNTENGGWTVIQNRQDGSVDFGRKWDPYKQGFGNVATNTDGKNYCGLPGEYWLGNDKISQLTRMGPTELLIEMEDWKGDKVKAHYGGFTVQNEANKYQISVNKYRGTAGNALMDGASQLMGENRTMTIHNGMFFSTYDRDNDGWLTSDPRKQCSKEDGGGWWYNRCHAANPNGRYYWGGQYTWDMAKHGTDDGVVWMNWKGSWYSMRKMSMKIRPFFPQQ
T3 sequence (looked up) 3: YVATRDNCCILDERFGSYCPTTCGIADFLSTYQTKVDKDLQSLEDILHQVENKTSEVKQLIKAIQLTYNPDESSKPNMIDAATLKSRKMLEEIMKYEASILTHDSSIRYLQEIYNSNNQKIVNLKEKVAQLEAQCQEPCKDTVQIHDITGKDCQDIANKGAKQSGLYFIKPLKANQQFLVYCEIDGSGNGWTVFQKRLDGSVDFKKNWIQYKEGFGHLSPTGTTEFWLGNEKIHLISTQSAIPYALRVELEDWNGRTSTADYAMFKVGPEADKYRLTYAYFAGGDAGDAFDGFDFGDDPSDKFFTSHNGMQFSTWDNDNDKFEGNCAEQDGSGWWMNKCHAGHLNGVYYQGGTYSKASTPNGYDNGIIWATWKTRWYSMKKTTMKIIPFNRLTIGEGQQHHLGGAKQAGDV
The test is described as above.

Test [9] addresses Human plasma fibronectin (Fn) (human, Plasma form by convention: no EDB or EDA, disulfide-linked heterodimer of a V+ chain (V89 chosen) and a V0 chain; the real material is a splice mixture. N-terminal pyroglutamate, glycosylated). Description: SPR; AF1 immobilised by amine coupling, Fn (5.2–0.01 nM) or NTD as analyte; kinetic analysis, Langmuir 1:1 fit; 25 °C, HBS-P+.

Take B1: the Kd stood at 0.7 nM in the test with AF1 (rFnBPA(189–550)) [1] and 0.393 nM with AF1 (rFnBPA(189–550)) [2].
For the molecule B2, the binding result in the test with rFnBPA(189–505) [3] and with AF1 (rFnBPA(189–550)) [4] was “binds” in each case.
Turning to B3, the Kd in the test with rFnBPA(189–505) [5] was found to be 3.7 µM; in the test with rFnBPA(189–511) it was 1500 nM; with AF1 (rFnBPA(189–550)) [6], 1500 nM.
Turning to B4, in [7], the dH is -35.8 kcal/mol and the “stoichiometry N” value amounted to 0.89. In [8], the Kd is 1100 nM, the dH is -6.1 kcal/mol and the “stoichiometry N” value amounted to 2.11. Also, the Kd in test [9] was 0.359 nM.

Broadly, the Kd is the concentration at which binding is half-saturated. The stoichiometry N is the number of molecules, sites or subunits per partner or assembly.
